# B1: Pistol ribozyme (parent)
# chain: GGGUCGUUGUUCCAUAAUCGCGUGGAUAUGGCACGCAAGUUUCUACCGGGCACCGUAAAUGUCCGACUGGAGCCGUUCGGGCGGCUAUAAACAGACCUCAGGCCCGAAGCGUGGCGGCACCUGCCGCCGGUGGUAAAAAAGAUCGGAAGAGCACACGUCU
# Variants of: B1
# Assay: aptazyme ON/OFF ratio, guanine; higher = stronger switching; co-transcriptional cleavage with and without guanine
row,Variant,aptazyme ON/OFF ratio
1,GGGUCGACAGGAUAUAAUCGCGUGGAUAUGGCACGCAAGUUUCUACCGGGCACCGUAAAUGUCCGACUGGAGCCGUUCGGGCGGCUAUAAACAGACCUCAGGCCCGAAGCGUGGCGGCACCUGCCGCCGGUGGUAAAAAAGAUCGGAAGAGCACACGUCU,1.27
2,GGGUCGACAGGAAAUAAUCGCGUGGAUAUGGCACGCAAGUUUCUACCGGGCACCGUAAAUGUCCGACUGGAGCCGUUCGGGCGGCUAUAAACAGACCUCAGGCCCGAAGCGUGGCGGCACCUGCCGCCGGUGGUAAAAAAGAUCGGAAGAGCACACGUCU,1.39
3,GGGUCGACAGGAGAUAAUCGCGUGGAUAUGGCACGCAAGUUUCUACCGGGCACCGUAAAUGUCCGACUGGAGCCGUUCGGGCGGCUAUAAACAGACCUCAGGCCCGAAGCGUGGCGGCACCUGCCGCCGGUGGUAAAAAAGAUCGGAAGAGCACACGUCU,1.15
4,GGGUCGACAGGUCAUAAUCGCGUGGAUAUGGCACGCAAGUUUCUACCGGGCACCGUAAAUGUCCGACUGGAGCCGUUCGGGCGGCUAUAAACAGACCUCAGGCCCGAAGCGUGGCGGCACCUGCCGCCGGUGGUAAAAAAGAUCGGAAGAGCACACGUCU,1.39
5,GGGUCGACAGGACAUAAUCGCGUGGAUAUGGCACGCAAGUUUCUACCGGGCACCGUAAAUGUCCGACUGGAGCCGUUCGGGCGGCUAUAAACAGACCUCAGGCCCGAAGCGUGGCGGCACCUGCCGCCGGUGGUAAAAAAGAUCGGAAGAGCACACGUCU,1.11
6,GGGUCGACAGGGCAUAAUCGCGUGGAUAUGGCACGCAAGUUUCUACCGGGCACCGUAAAUGUCCGACUGGAGCCGUUCGGGCGGCUAUAAACAGACCUCAGGCCCGAAGCGUGGCGGCACCUGCCGCCGGUGGUAAAAAAGAUCGGAAGAGCACACGUCU,1.44
7,GGGUCGACAUCACAUAAUCGCGUGGAUAUGGCACGCAAGUUUCUACCGGGCACCGUAAAUGUCCGACUGGAGCCGUUCGGGCGGCUAUAAACAGACCUCAGGCCCGAAGCGUGGCGGCACCUGCCGCCGGUGGUAAAAAAGAUCGGAAGAGCACACGUCU,1.21
8,GGGUCGACAUAGUAUAAUCGCGUGGAUAUGGCACGCAAGUUUCUACCGGGCACCGUAAAUGUCCGACUGGAGCCGUUCGGGCGGCUAUAAACAGACCUCAGGCCCGAAGCGUGGCGGCACCUGCCGCCGGUGGUAAAAAAGAUCGGAAGAGCACACGUCU,1.16
9,GGGUCGACAUAGAAUAAUCGCGUGGAUAUGGCACGCAAGUUUCUACCGGGCACCGUAAAUGUCCGACUGGAGCCGUUCGGGCGGCUAUAAACAGACCUCAGGCCCGAAGCGUGGCGGCACCUGCCGCCGGUGGUAAAAAAGAUCGGAAGAGCACACGUCU,1.11
10,GGGUCGACAUAGGAUAAUCGCGUGGAUAUGGCACGCAAGUUUCUACCGGGCACCGUAAAUGUCCGACUGGAGCCGUUCGGGCGGCUAUAAACAGACCUCAGGCCCGAAGCGUGGCGGCACCUGCCGCCGGUGGUAAAAAAGAUCGGAAGAGCACACGUCU,1.21
11,GGGUCGACAGGUUAUAAUCGCGUGGAUAUGGCACGCAAGUUUCUACCGGGCACCGUAAAUGUCCGACUGGAGCCGUUCGGGCGGCUAUAAACAGACCUCAGGCCCGAAGCGUGGCGGCACCUGCCGCCGGUGGUAAAAAAGAUCGGAAGAGCACACGUCU,1.07
12,GGGUCGACAGGUAAUAAUCGCGUGGAUAUGGCACGCAAGUUUCUACCGGGCACCGUAAAUGUCCGACUGGAGCCGUUCGGGCGGCUAUAAACAGACCUCAGGCCCGAAGCGUGGCGGCACCUGCCGCCGGUGGUAAAAAAGAUCGGAAGAGCACACGUCU,1.29
13,GGGUCGACAGGUGAUAAUCGCGUGGAUAUGGCACGCAAGUUUCUACCGGGCACCGUAAAUGUCCGACUGGAGCCGUUCGGGCGGCUAUAAACAGACCUCAGGCCCGAAGCGUGGCGGCACCUGCCGCCGGUGGUAAAAAAGAUCGGAAGAGCACACGUCU,1.33
14,GGGUCGACAUAUCAUAAUCGCGUGGAUAUGGCACGCAAGUUUCUACCGGGCACCGUAAAUGUCCGACUGGAGCCGUUCGGGCGGCUAUAAACAGACCUCAGGCCCGAAGCGUGGCGGCACCUGCCGCCGGUGGUAAAAAAGAUCGGAAGAGCACACGUCU,1.25
15,GGGUCGACAUAACAUAAUCGCGUGGAUAUGGCACGCAAGUUUCUACCGGGCACCGUAAAUGUCCGACUGGAGCCGUUCGGGCGGCUAUAAACAGACCUCAGGCCCGAAGCGUGGCGGCACCUGCCGCCGGUGGUAAAAAAGAUCGGAAGAGCACACGUCU,1.43
16,GGGUCGACAUAGCAUAAUCGCGUGGAUAUGGCACGCAAGUUUCUACCGGGCACCGUAAAUGUCCGACUGGAGCCGUUCGGGCGGCUAUAAACAGACCUCAGGCCCGAAGCGUGGCGGCACCUGCCGCCGGUGGUAAAAAAGAUCGGAAGAGCACACGUCU,1.26
17,GGGUCGACAUACCAUAAUCGCGUGGAUAUGGCACGCAAGUUUCUACCGGGCACCGUAAAUGUCCGACUGGAGCCGUUCGGGCGGCUAUAAACAGACCUCAGGCCCGAAGCGUGGCGGCACCUGCCGCCGGUGGUAAAAAAGAUCGGAAGAGCACACGUCU,1.25
18,GGGUCGACAUCCCAUAAUCGCGUGGAUAUGGCACGCAAGUUUCUACCGGGCACCGUAAAUGUCCGACUGGAGCCGUUCGGGCGGCUAUAAACAGACCUCAGGCCCGAAGCGUGGCGGCACCUGCCGCCGGUGGUAAAAAAGAUCGGAAGAGCACACGUCU,1.04

row,Variant,aptazyme ON/OFF ratio
1,GGGUCGACAUAAGAUAAUCGCGUGGAUAUGGCACGCAAGUUUCUACCGGGCACCGUAAAUGUCCGACUGGAGCCGUUCGGGCGGCUAUAAACAGACCUCAGGCCCGAAGCGUGGCGGCACCUGCCGCCGGUGGUAAAAAAGAUCGGAAGAGCACACGUCU,1.09
2,GGGUCGACAUAAAAUAAUCGCGUGGAUAUGGCACGCAAGUUUCUACCGGGCACCGUAAAUGUCCGACUGGAGCCGUUCGGGCGGCUAUAAACAGACCUCAGGCCCGAAGCGUGGCGGCACCUGCCGCCGGUGGUAAAAAAGAUCGGAAGAGCACACGUCU,1.31
3,GGGUCGACAUAAUAUAAUCGCGUGGAUAUGGCACGCAAGUUUCUACCGGGCACCGUAAAUGUCCGACUGGAGCCGUUCGGGCGGCUAUAAACAGACCUCAGGCCCGAAGCGUGGCGGCACCUGCCGCCGGUGGUAAAAAAGAUCGGAAGAGCACACGUCU,1.17
4,GGGUCGACAGGGAAUAAUCGCGUGGAUAUGGCACGCAAGUUUCUACCGGGCACCGUAAAUGUCCGACUGGAGCCGUUCGGGCGGCUAUAAACAGACCUCAGGCCCGAAGCGUGGCGGCACCUGCCGCCGGUGGUAAAAAAGAUCGGAAGAGCACACGUCU,1.42
5,GGGUCGACAGGGGAUAAUCGCGUGGAUAUGGCACGCAAGUUUCUACCGGGCACCGUAAAUGUCCGACUGGAGCCGUUCGGGCGGCUAUAAACAGACCUCAGGCCCGAAGCGUGGCGGCACCUGCCGCCGGUGGUAAAAAAGAUCGGAAGAGCACACGUCU,1.09
6,GGGUCGACAGGGUAUAAUCGCGUGGAUAUGGCACGCAAGUUUCUACCGGGCACCGUAAAUGUCCGACUGGAGCCGUUCGGGCGGCUAUAAACAGACCUCAGGCCCGAAGCGUGGCGGCACCUGCCGCCGGUGGUAAAAAAGAUCGGAAGAGCACACGUCU,1.12
7,GGGUCGACAUACAAUAAUCGCGUGGAUAUGGCACGCAAGUUUCUACCGGGCACCGUAAAUGUCCGACUGGAGCCGUUCGGGCGGCUAUAAACAGACCUCAGGCCCGAAGCGUGGCGGCACCUGCCGCCGGUGGUAAAAAAGAUCGGAAGAGCACACGUCU,1.16
8,GGGUCGACAUACGAUAAUCGCGUGGAUAUGGCACGCAAGUUUCUACCGGGCACCGUAAAUGUCCGACUGGAGCCGUUCGGGCGGCUAUAAACAGACCUCAGGCCCGAAGCGUGGCGGCACCUGCCGCCGGUGGUAAAAAAGAUCGGAAGAGCACACGUCU,1.09
9,GGGUCGACAUACUAUAAUCGCGUGGAUAUGGCACGCAAGUUUCUACCGGGCACCGUAAAUGUCCGACUGGAGCCGUUCGGGCGGCUAUAAACAGACCUCAGGCCCGAAGCGUGGCGGCACCUGCCGCCGGUGGUAAAAAAGAUCGGAAGAGCACACGUCU,1.3
10,GGGUCGACAUCAGAUAAUCGCGUGGAUAUGGCACGCAAGUUUCUACCGGGCACCGUAAAUGUCCGACUGGAGCCGUUCGGGCGGCUAUAAACAGACCUCAGGCCCGAAGCGUGGCGGCACCUGCCGCCGGUGGUAAAAAAGAUCGGAAGAGCACACGUCU,1.16
11,GGGUCGACAUCAAAUAAUCGCGUGGAUAUGGCACGCAAGUUUCUACCGGGCACCGUAAAUGUCCGACUGGAGCCGUUCGGGCGGCUAUAAACAGACCUCAGGCCCGAAGCGUGGCGGCACCUGCCGCCGGUGGUAAAAAAGAUCGGAAGAGCACACGUCU,1.19
12,GGGUCGACAUCAUAUAAUCGCGUGGAUAUGGCACGCAAGUUUCUACCGGGCACCGUAAAUGUCCGACUGGAGCCGUUCGGGCGGCUAUAAACAGACCUCAGGCCCGAAGCGUGGCGGCACCUGCCGCCGGUGGUAAAAAAGAUCGGAAGAGCACACGUCU,1.23
13,GGGUCGACAUAUUAUAAUCGCGUGGAUAUGGCACGCAAGUUUCUACCGGGCACCGUAAAUGUCCGACUGGAGCCGUUCGGGCGGCUAUAAACAGACCUCAGGCCCGAAGCGUGGCGGCACCUGCCGCCGGUGGUAAAAAAGAUCGGAAGAGCACACGUCU,1.18
14,GGGUCGACAUAUAAUAAUCGCGUGGAUAUGGCACGCAAGUUUCUACCGGGCACCGUAAAUGUCCGACUGGAGCCGUUCGGGCGGCUAUAAACAGACCUCAGGCCCGAAGCGUGGCGGCACCUGCCGCCGGUGGUAAAAAAGAUCGGAAGAGCACACGUCU,1.25
15,GGGUCGACAUAUGAUAAUCGCGUGGAUAUGGCACGCAAGUUUCUACCGGGCACCGUAAAUGUCCGACUGGAGCCGUUCGGGCGGCUAUAAACAGACCUCAGGCCCGAAGCGUGGCGGCACCUGCCGCCGGUGGUAAAAAAGAUCGGAAGAGCACACGUCU,1.13
16,GGGUCGACAGGCAAUAAUCGCGUGGAUAUGGCACGCAAGUUUCUACCGGGCACCGUAAAUGUCCGACUGGAGCCGUUCGGGCGGCUAUAAACAGACCUCAGGCCCGAAGCGUGGCGGCACCUGCCGCCGGUGGUAAAAAAGAUCGGAAGAGCACACGUCU,1.25
17,GGGUCGACAGGCUAUAAUCGCGUGGAUAUGGCACGCAAGUUUCUACCGGGCACCGUAAAUGUCCGACUGGAGCCGUUCGGGCGGCUAUAAACAGACCUCAGGCCCGAAGCGUGGCGGCACCUGCCGCCGGUGGUAAAAAAGAUCGGAAGAGCACACGUCU,1.18
18,GGGUCGACAGGCGAUAAUCGCGUGGAUAUGGCACGCAAGUUUCUACCGGGCACCGUAAAUGUCCGACUGGAGCCGUUCGGGCGGCUAUAAACAGACCUCAGGCCCGAAGCGUGGCGGCACCUGCCGCCGGUGGUAAAAAAGAUCGGAAGAGCACACGUCU,1.15

# From the RNAGym collection of RNA variant scans (doi:10.1021/acssynbio.7b00057)
